B1: Ex4-FGFR1cA1H (antibody, mouse IgG2a)
heavy: not shown
light: EIVLTQSPLSLPVTPGEPASISCRSSQSLRHSNGYNYLDWYLQKPGQSPQLLIYLASNRASGVPDRFSGSGSGTDFTLKISRVEAEDVGVYYCMQALQIPPTFGPGTKVDIKRTVAAPTVSIFPPSSEQLTSGGASVVCFLNNFYPKDINVKWKIDGSERQNGVLNSWTDQDSKDSTYSMSSTLTLTKDEYERHNSYTCEATHKTSTSPIVKSFNRNEC
B2: Ex4-ScrH (antibody, mouse IgG2a, kappa)
heavy: not shown
light: DIVMTQSPSSLSASVGDRVTITCKASQNVGTNVAWYQQKPGKAPKALIYSASYRYSGVPDRFSGSGSGTDFTLTISSLQPEDFATYYCQQYNSYPLTFGGGTKVEIKRTDAAPTVSIFPPSSEQLTSGGASVVCFLNNFYPKDINVKWKIDGSERQNGVLNSWTDQDSKDSTYSMSSTLTLTKDEYERHNSYTCEATHKTSTSPIVKSFNRNEC
B3: GLP-1ScrH (antibody, mouse IgG2a, kappa)
heavy: HGEGTFTSDVSSYLEGQAAKEFIAWLVKGRGSGGGGSGGGGSGQVQLVQSGSELKKPGASVKVSCKASGYTFTNYGMNWVRQAPGQGLEWMGWINTRNGKSTYVDDFKGRFVFSLDTSVSTAYLQISSLKADDTAVYYCAREGNMDGYFPFTYWGQGTLVTVSSAKTTAPSVYPLAPVCGDTTGSSVTLGCLVKGYFPEPVTLTWNSGSLSSGVHTFPAVLQSDLYTLSSSVTVTSSTWPSQSITCNVAHPASSTKVDKKIEPRGPTIKPCPPCKCPAPNLAGAPSVFIFPPKIKDVLMISLSPIVTCVVVDVSEDDPDVQISWFVNNVEVHTAQTQTHREDYNSTLRVVSALPIQHQDWMSGKEFKCKVNNKDLPAPIERTISKPKGSVRAPQVYVLPPPEEEMTKKQVTLTCMVTDFMPEDIYVEWTNNGKTELNYKNTEPVLDSDGSYFMYSKLRVEKKNWVERNSYSCSVVHEGLHNHHTTKSFSRTPGK
light: B2 light
B4: GLP1ScrH/L (antibody, mouse IgG2a)
heavy: B3 heavy
light: HGEGTFTSDVSSYLEGQAAKEFIAWLVKGRGSGGGGSGGGGSGDIVMTQSPSSLSASVGDRVTITCKASQNVGTNVAWYQQKPGKAPKALIYSASYRYSGVPDRFSGSGSGTDFTLTISSLQPEDFATYYCQQYNSYPLTFGGGTKVEIKRTVAAPTVSIFPPSSEQLTSGGASVVCFLNNFYPKDINVKWKIDGSERQNGVLNSWTDQDSKDSTYSMSSTLTLTKDEYERHNSYTCEATHKTSTSPIVKSFNRNEC
B5: Ex4-FGFR1cA1L (antibody, mouse IgG2a)
heavy: QVQLVQSGAEVKKPGSSVKVSCKASGQTFTGYYMHWVRQAPGQGLEWMGRIIPILGIAQKFQGRVTITADKSTSTAYMELSSLRSEDTAVYYCARGGDLGGMDVWGQGTLVTVSSAKTTAPSVYPLAPVCGDTTGSSVTLGCLVKGYFPEPVTLTWNSGSLSSGVHTFPAVLQSDLYTLSSSVTVTSSTWPSQSITCNVAHPASSTKVDKKIEPRGPTIKPCPPCKCPAPNLAGAPSVFIFPPKIKDVLMISLSPIVTCVVVDVSEDDPDVQISWFVNNVEVHTAQTQTHREDYNSTLRVVSALPIQHQDWMSGKEFKCKVNNKDLPAPIERTISKPKGSVRAPQVYVLPPPEEEMTKKQVTLTCMVTDFMPEDIYVEWTNNGKTELNYKNTEPVLDSDGSYFMYSKLRVEKKNWVERNSYSCSVVHEGLHNHHTTKSFSRTPGK
light: not shown
B6: Ex4-ScrL (antibody, mouse IgG2a)
heavy: QVQLVQSGSELKKPGASVKVSCKASGYTFTNYGMNWVRQAPGQGLEWMGWINTRNGKSTYVDDFKGRFVFSLDTSVSTAYLQISSLKADDTAVYYCAREGNMDGYFPFTYWGQGTLVTVSSAKTTAPSVYPLAPVCGDTTGSSVTLGCLVKGYFPEPVTLTWNSGSLSSGVHTFPAVLQSDLYTLSSSVTVTSSTWPSQSITCNVAHPASSTKVDKKIEPRGPTIKPCPPCKCPAPNLAGAPSVFIFPPKIKDVLMISLSPIVTCVVVDVSEDDPDVQISWFVNNVEVHTAQTQTHREDYNSTLRVVSALPIQHQDWMSGKEFKCKVNNKDLPAPIERTISKPKGSVRAPQVYVLPPPEEEMTKKQVTLTCMVTDFMPEDIYVEWTNNGKTELNYKNTEPVLDSDGSYFMYSKLRVEKKNWVERNSYSCSVVHEGLHNHHTTKSFSRTPGK
light: not shown
B7: GLP-1ScrL (antibody, mouse IgG2a)
heavy: B6 heavy
light: B4 light

What follows are binders tested against GLP-1 receptor on CHO 6CRE GLP1R cells (assay: cell-based or functional assay).
B1 was tested, and the “Average EC50 (pM), luciferase reporter in CHO 6CRE GLP1R cells” value (shortened to “Average EC50 (pM), luciferase reporter”) was 117 pM. In the case of B2, the “Average EC50 (pM), luciferase reporter” value is reported as 153 pM. With B3 the “Average EC50 (pM), luciferase reporter” value was 485 pM. For B4, the “Average EC50 (pM), luciferase reporter” value was 475 pM. B5 was tested, and the “Average EC50 (pM), luciferase reporter” value was 109 pM. For B6, the “Average EC50 (pM), luciferase reporter” value was 117 pM. B7 was tested, and the “Average EC50 (pM), luciferase reporter” value was 889 pM.

Source: US20120058116A1 (published 2012)
